“Also recorded” adds a separate entry of the source.
Experiments:
purified DNA-PKcs = target: T1, purified DNA-PKcs (Homo sapiens, UniProt P78527); assay: GST pull-down with purified DNA-PKcs; format: binding; conditions: for effect of DNA or EtBr on binding of purified DNA-PKcs: 20 ng/μl sonicated calf thymus DNA or 0.2 mg/ml EtBr; for salt dependence of interaction with homogeneous DNA-PKcs: 50 mM to 150 mM KCl; for interaction with purified DNA-PKcs: 120 mM KCl, silver-staining
T1 construct: The starting material for purification of DNA-PKcs was HeLa NE; host or cells: HeLa nuclear extract; purified in house over Q Sepharose, heparin agarose, phenyl Sepharose and Mono-S
Method: (§1) GST-Ku70 or GST-Ku80 (0.5-2.0 μg), or deletion derivative thereof, bound to Glutathione agarose beads, was incubated with ˜100 μg (10 μl) of HeLa Cell nuclear extract (NE) and 80 μl of Z′ buffer (25 mM HEPES pH 6.7, 12.5 mM MgCl2, 1 mM dithiothreitol, 0.1% Nonidet P40 (BDH), 20% Glycerol) containing the specified concentration of KCl (for example, 50 mM Z′ contains 50 mM KCl in addition to the other buffer components). Binding reactions were incubated at 4° C. for 3-4 hours and the beads recovered by centrifugation and washed 7 times in 1 ml of Buffer X (25 mM HEPES pH 6.7, 2 mM MgCl2, 1 mM Dithiothreitol, 0.4% Nonidet P40) containing the specified concentration of KCl (for example, 120 mM Buffer X contains 120 mM KCl in addition to the other buffer components). Proteins retained on the beads after washing were eluted in SDS gel-loading buffer and half of the sample subjected to polyacrylamide gel eletrophoresis and silver staining. “Pulldown” assays from purified DNA-PKcs were done as above with 400 ng of purified DNA-PKcs substituted for HeLa NE.
The starting material for purification of DNA-PKcs was HeLa NE obtained from the Computer Cell Culture Centre, Mons, Belgium. All purification steps were performed in buffer D (20 mM HEPES pH 7.6, 2 mm MgCl2, 0.2 mM EDTA, 10% Glycerol) with a specified concentration of KCl (for example 50 mM Buffer D contains 50 mM KCl in addition to the other buffer components). In a representative purification, 35 ml of HeLa NE was cleared by centrifugation and diluted to a final concentration of 50 mM Buffer D, and protease inhibitors added (Boehringer). This was loaded onto a 60 ml column of Q Sepharose (Pharmacia) and eluted in a linear salt gradient of 50-500 mM Buffer D. Under these conditions the majority of DNA-PKcs and Ku were separated into two fractions peaking at approximately 200 mM Buffer D, and 450 mM Buffer D respectively. The DNA-PKcs fraction was adjusted to 100 mM KCl using 0 mM Buffer D (salt concentration was measured by conductivity) and applied to a 10 ml column of heparin agarose (Sigma). The column was developed with a linear gradient of 100-200 mM Buffer D. The peak DNA-PKcs fraction from the heparin column was adjusted to 0.5 M ammonium sulphate and applied to a 2.5 ml column of phenyl Sepharose (Pharmacia) equilibrated in, typically, 300 mM Buffer D containing 0.5 M ammonium sulphate. Under these conditions, 100% of DNA-PKcs is retained by the column, whilst the majority of contaminating Ku flows through (as judged by western blotting using antibodies specific to the Ku subunits). The column was then washed extensively in 0 mM Buffer D containing 0.5 M ammonium sulphate, and subsequently in 0 mM Buffer D containing 0.4 M ammonium sulphate, which removes most of the remaining Ku, before applying a linear gradient of 0.4-0 M ammonium sulphate in 0 mM Buffer D. Peak DNA-PKcs fractions were dialysed into 50 mM Buffer D, applied to a 1 ml Mono-S FPLC column (Pharmacia), and eluted in a linear gradient of 50-500 mM Buffer D. Peak fractions were dialysed into 50 mM Buffer D and stored at −80° C. prior to use. The resulting protein preparation contained a single abundant polypeptide corresponding to DNA-PKcs as judged by Coomassie staining, silver staining and western blotting, with a ladder of smaller DNA-PKcs breakdown products. […] To assess the levels of Ku contamination in the DNA-PKcs preparation we carried out quantitative western blotting using Ku-specific antibodies. In these western blots, an essentially homogeneous preparation of Ku was titrated against known amounts of our DNA-PKcs preparations.
GST-Ku70 or GST-Ku80 containing glutathione agarose beads were incubated with 0.4 μg of purified DNA-PKcs under conditions of 120 mM KCl. The beads were then washed and any proteins retained on the beads were detected by silver-staining.
A control binding reaction using beads containing GST alone was also carried out. […]

DNA-PKcs = DNA-PKcs (Homo sapiens, UniProt P78527); assay: GST pull-down from HeLa cell nuclear extract; format: binding; set-up: incubated with ˜100 μg (10 μl) of HeLa Cell nuclear extract (NE); host or cells: HeLa cell nuclear extract; conditions: for effect of EtBr on interaction with DNA-PKcs in HeLa nuclear extract: EtBr 0.2 mg/ml; for proteins retrieved from crude HeLa nuclear extract: washed in buffer X containing 150 mM KCl, silver-staining
Method: as §1
The inventors performed pull-down assays from HeLa cell nuclear extract using GST-Ku70 or GST-Ku80 bound to glutathione agarose beads. Thus, GST-Ku70 or GST-Ku80 protein was purified on glutathione agarose beads as described above, and the beads incubated with crude HeLa cell nuclear extract and washed extensively in buffer X containing 150 mM KCl. The bound proteins were then eluted in the presence of SDS, subjected to SDS-PAGE on a 6% polyacrylamide gel and detected by silver-staining. A control binding reaction was carried out using beads containing only GST.
The inventors investigated whether the observed interactions between DNA-PKcs and the individual Ku subunits were indirect and were being mediated by DNA and/or the Ku heterodimer present in the HeLa nuclear extract. EtBr was used in a final concentration of 0.2 mg/ml in order to address the potential involvement of DNA (EtBr disrupts protein-DNA interactions).

T1 sequence (P78527 whole entry): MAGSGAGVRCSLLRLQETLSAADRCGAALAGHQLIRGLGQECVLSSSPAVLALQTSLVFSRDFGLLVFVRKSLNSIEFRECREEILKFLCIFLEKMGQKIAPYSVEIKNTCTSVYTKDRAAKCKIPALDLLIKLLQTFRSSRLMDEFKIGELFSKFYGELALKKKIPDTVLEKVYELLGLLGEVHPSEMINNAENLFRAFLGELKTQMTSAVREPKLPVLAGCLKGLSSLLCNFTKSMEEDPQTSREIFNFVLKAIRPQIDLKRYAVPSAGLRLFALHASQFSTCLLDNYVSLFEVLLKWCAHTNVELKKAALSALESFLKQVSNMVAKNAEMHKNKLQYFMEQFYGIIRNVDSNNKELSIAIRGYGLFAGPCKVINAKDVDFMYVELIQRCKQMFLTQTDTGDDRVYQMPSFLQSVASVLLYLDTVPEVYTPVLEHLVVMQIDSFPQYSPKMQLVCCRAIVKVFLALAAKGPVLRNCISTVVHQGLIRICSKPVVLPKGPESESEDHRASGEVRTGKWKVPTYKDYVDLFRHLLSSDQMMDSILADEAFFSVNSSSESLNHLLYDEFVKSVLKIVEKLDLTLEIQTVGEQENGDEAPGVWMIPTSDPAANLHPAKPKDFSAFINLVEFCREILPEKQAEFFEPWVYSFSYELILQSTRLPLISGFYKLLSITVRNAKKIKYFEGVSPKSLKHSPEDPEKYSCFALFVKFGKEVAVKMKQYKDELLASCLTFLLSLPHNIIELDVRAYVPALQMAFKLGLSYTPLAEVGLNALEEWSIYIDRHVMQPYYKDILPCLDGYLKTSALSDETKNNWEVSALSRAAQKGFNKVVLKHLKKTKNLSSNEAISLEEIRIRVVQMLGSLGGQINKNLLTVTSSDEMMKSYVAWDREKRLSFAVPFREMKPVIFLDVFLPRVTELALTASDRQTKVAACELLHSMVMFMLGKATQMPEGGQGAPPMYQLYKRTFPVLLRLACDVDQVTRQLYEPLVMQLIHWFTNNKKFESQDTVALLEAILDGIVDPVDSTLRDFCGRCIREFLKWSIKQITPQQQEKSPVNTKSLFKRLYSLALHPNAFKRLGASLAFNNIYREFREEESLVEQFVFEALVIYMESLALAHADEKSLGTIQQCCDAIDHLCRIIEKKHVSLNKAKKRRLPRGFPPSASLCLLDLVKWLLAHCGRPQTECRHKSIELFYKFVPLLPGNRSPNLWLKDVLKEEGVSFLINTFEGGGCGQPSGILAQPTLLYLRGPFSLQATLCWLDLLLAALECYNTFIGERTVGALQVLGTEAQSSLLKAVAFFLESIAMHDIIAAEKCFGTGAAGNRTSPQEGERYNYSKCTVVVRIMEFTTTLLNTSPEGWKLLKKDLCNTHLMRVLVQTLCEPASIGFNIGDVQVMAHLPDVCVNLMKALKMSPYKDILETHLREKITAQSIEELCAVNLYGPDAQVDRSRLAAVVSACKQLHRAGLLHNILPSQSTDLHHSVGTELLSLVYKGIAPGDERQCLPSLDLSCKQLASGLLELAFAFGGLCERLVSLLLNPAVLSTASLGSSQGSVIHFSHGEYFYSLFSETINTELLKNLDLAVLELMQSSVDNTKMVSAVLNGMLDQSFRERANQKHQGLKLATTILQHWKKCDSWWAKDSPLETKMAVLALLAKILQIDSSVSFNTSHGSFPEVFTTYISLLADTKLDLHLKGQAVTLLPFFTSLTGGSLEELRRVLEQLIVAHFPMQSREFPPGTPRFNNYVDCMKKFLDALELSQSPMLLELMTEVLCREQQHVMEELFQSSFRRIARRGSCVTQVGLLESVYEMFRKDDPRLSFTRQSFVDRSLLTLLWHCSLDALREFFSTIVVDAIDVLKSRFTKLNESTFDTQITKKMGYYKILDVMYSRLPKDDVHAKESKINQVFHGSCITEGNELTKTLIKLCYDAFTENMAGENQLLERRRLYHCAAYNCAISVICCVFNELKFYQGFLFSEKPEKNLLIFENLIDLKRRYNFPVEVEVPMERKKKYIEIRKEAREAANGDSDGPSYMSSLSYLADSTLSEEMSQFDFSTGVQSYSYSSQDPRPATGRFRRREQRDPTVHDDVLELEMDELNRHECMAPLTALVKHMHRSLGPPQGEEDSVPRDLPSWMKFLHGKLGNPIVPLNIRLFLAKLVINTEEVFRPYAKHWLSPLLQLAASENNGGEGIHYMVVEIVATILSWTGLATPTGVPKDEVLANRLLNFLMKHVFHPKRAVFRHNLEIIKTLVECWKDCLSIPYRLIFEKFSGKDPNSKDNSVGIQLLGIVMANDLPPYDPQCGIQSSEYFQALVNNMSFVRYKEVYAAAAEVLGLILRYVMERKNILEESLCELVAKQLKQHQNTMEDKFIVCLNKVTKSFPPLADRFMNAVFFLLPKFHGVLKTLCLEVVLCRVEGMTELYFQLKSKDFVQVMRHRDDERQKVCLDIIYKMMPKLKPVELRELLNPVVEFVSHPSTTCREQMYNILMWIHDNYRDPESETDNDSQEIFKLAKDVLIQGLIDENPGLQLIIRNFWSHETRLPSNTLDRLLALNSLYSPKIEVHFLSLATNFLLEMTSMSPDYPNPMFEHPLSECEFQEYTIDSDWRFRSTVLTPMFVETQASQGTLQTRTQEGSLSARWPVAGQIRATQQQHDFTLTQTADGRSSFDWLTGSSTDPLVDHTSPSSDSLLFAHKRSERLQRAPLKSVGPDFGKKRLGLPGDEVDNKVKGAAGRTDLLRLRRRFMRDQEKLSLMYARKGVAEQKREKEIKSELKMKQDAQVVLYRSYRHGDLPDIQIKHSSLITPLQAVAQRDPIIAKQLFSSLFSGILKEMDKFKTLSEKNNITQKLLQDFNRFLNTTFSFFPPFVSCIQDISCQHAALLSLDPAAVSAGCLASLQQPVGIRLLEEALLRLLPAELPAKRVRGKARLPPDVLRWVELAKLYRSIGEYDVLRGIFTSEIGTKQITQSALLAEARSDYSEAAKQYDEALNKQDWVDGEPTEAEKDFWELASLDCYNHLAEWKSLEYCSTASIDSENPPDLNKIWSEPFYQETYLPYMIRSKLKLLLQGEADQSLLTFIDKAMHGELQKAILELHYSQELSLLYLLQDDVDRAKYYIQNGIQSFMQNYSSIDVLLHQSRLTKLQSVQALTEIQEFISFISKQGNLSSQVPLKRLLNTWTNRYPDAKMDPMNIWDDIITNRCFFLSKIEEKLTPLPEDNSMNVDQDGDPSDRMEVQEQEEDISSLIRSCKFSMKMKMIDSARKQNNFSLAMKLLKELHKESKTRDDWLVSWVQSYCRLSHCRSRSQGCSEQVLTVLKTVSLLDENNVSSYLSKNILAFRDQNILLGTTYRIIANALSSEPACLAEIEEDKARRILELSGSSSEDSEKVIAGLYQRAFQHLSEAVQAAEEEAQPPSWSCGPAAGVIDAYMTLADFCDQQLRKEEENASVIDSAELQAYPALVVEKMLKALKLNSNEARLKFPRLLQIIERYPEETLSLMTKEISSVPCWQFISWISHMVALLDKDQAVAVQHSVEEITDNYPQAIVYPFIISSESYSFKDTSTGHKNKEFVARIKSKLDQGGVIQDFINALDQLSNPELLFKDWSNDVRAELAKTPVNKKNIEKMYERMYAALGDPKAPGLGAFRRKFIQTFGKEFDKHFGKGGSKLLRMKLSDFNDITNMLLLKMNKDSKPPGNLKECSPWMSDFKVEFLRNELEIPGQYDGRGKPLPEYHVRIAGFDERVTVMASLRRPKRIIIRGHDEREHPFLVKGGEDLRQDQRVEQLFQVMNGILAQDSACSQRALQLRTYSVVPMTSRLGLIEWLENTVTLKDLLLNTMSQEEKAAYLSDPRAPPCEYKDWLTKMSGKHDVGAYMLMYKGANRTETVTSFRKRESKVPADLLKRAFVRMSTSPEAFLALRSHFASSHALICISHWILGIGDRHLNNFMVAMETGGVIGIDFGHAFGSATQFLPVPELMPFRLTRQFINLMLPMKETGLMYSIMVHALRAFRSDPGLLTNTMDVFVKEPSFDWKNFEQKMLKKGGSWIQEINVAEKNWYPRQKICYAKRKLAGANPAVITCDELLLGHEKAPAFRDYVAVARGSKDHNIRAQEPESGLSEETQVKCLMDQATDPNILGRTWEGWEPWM
Sequence of DNA-PKcs (P78527 whole entry): as above

Row | Substance | effect of DNA or EtBr on binding of purified DNA-PKcs (purified DNA-PKcs) | effect of DNA or EtBr on binding of purified DNA-PKcs (purified DNA-PKcs; listed as Ku70) | salt dependence of interaction with homogeneous DNA-PKcs (purified DNA-PKcs) | interaction with purified DNA-PKcs (purified DNA-PKcs) | effect of EtBr on interaction with DNA-PKcs in HeLa nuclear extract (DNA-PKcs) | proteins retrieved from crude HeLa nuclear extract (DNA-PKcs)
1 | GST-Ku70: full length human Ku70 fused to glutathione S-transferase, expressed in E. coli | no affect | no stimulation of binding was observed in the presence of DNA | at lower but not at higher ionic strengths, there is an interaction | very little interaction | essentially abolished by EtBr treatment | DNA-PKcs is the only protein that is retrieved
2 | GST-Ku80: full length human Ku80 fused to glutathione S-transferase, expressed in E. coli | not affected by EtBr or by sheared genomic DNA; also recorded: no affect |  | still easily detectable at 150 mM KCl | interacts efficiently with purified DNA-PKcs | unaffected by EtBr | DNA-PKcs is the only protein that is retrieved

Reference: patent US6753151B1, “Interactions of Ku polypeptides and applications thereof” (Kudos Pharmaceuticals Limited, priority 1999, dated 2004)
